Tests used:
Tdp1(Δ148) [1] = target: T1, Tdp1(Δ148) (Homo sapiens, UniProt Q9NUW8 149-608); test: X-ray crystal structure (2.04 Å); 3'-phosphorylated product complex; Cross-linking: 10 mM Tris-HCl pH 7.5, 100 mM KCl, 5 µM each, 15 min room temperature then 15 min on ice, UV 312 nm 30 min on ice. Crystal complex: 50 mM HEPES pH 7.8, 50 mM NaCl, on ice, 110 µM complex; conditions: protein: recombinant; tags: N-terminal His6; chain copies: 2; blunt, self-complementary, 2 copies of one strand
Tdp1(Δ148) [2] = target: T1, Tdp1(Δ148); test: X-ray crystal structure (3.18 Å); product complex; Cross-linking: 10 mM Tris-HCl pH 7.5, 100 mM KCl, 5 µM each, 15 min room temperature then 15 min on ice, UV 312 nm 30 min on ice. Crystal complex: 50 mM HEPES pH 7.8, 50 mM NaCl, on ice, 110 µM complex; conditions: protein: recombinant; tags: N-terminal His6; chain copies: 2; blunt, self-complementary, 2 copies of one strand
Tdp1(Δ148) H263A = Tdp1(Δ148) H263A (Homo sapiens, UniProt Q9NUW8 149-608, H263A); test: UV cross-linking (312 nm), SDS-PAGE and MS; cross-link via F259; Cross-linking: 10 mM Tris-HCl pH 7.5, 100 mM KCl, 5 µM each, 15 min room temperature then 15 min on ice, UV 312 nm 30 min on ice. Crystal complex: 50 mM HEPES pH 7.8, 50 mM NaCl, on ice, 110 µM complex; conditions: protein: recombinant; tags: N-terminal His6; label: 5' 32P (tracer); 3' biotin-TEG; single strand
Chain of Tdp1(Δ148) H263A (Q9NUW8 149-608 H263A): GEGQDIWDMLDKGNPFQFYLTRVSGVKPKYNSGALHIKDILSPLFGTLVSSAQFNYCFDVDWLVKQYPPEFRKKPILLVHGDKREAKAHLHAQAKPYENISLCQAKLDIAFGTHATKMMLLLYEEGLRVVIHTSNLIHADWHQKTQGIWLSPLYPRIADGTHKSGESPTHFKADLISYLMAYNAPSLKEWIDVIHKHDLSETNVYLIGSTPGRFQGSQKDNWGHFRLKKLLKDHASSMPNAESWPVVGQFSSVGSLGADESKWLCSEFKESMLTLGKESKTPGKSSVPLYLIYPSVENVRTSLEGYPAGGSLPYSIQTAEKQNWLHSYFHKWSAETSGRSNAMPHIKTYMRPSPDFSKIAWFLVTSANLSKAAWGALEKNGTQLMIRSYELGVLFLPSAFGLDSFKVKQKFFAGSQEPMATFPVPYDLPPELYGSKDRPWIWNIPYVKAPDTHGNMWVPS

T1 sequence (Q9NUW8 149-608, stated change not applied): as the sequence (Q9NUW8 149-608 H263A) above, with A115H counted along it

B1: -2G 12-mer duplex (dsDNA)
DNA 1: CACTGCGCAGTG
DNA 2: CACTGCGCAGTG
Question: Does B1 bind (Tdp1(Δ148) [1])?
Answer: Result: binds

B2: -2T 12-mer duplex (dsDNA)
DNA 1: CAATGCGCATTG
DNA 2: CAATGCGCATTG
Question: Does B2 bind (Tdp1(Δ148) [2])?
Answer: Result: binds

Question: Does GTAGAGGATCTAAAAGAUTT (ssDNA, 5-iodouracil (5-iodo-dU) at nt 18) [5IdU(-3) 20-mer] bind (Tdp1(Δ148) H263A)?
Answer: Result: binds

Question: Does GTAGAGGATCTAAAAGACUT (ssDNA, 5-iodouracil (5-iodo-dU) at nt 19) [5IdU(-2) 20-mer] bind (Tdp1(Δ148) H263A)?
Answer: Result: binds
